{
  "source": "patent US20190359693A1",
  "key": {"[1]": {"biological_target": "recombinant HA of H7N3 A/NIBRG/60 (A/mallard/NL/12/00) (influenza A virus)", "assay": "biolayer interferometry (Octet), steady-state fit, geometric mean, pH 7.4"}, "[2]": {"biological_target": "recombinant HA of H7N9 A/Hangzhou/1/2013 (influenza A virus)", "assay": "biolayer interferometry (Octet), steady-state fit, geometric mean, pH 7.4"}, "[3]": {"biological_target": "recombinant HA of H1N1 A/Brisbane/59/07 (influenza A virus)", "assay": "biolayer interferometry (Octet), steady-state fit, geometric mean, pH 7.4"}, "[4]": {"biological_target": "recombinant HA of H3N2 A/Wisconsin/67/05 (influenza A virus)", "assay": "biolayer interferometry (Octet), steady-state fit, geometric mean, pH 7.4"}, "[5]": {"biological_target": "recombinant HA of B/Brisbane/60/08 (Victoria) (influenza B virus)", "assay": "biolayer interferometry (Octet), steady-state fit, geometric mean, pH 7.4"}, "[6]": {"biological_target": "recombinant HA of H3N2 A/HK/1/68-MA (influenza A virus)", "assay": "biolayer interferometry (Octet), steady-state fit, geometric mean, pH 7.4"}, "[7]": {"biological_target": "hemagglutinin (HA) of influenza B/Harbin/7/94 (Yamagata) (influenza B virus)", "assay": "cell-based or functional assay"}, "[8]": {"biological_target": "hemagglutinin (HA) of influenza A/Great Cormorant/MPB1683/06 (H4N6) (influenza A virus)", "assay": "cell-based or functional assay"}, "[9]": {"biological_target": "hemagglutinin (HA) of influenza A/Mississippi/03/01 274H (H1N1) (influenza A virus)", "assay": "cell-based or functional assay"}, "[10]": {"biological_target": "hemagglutinin (HA) of influenza A/HK/54/98 (H1N1) (influenza A virus)", "assay": "cell-based or functional assay"}, "[11]": {"biological_target": "hemagglutinin (HA) of influenza A/Env/MPK659/09 (H12N5) (influenza A virus)", "assay": "cell-based or functional assay"}, "[12]": {"biological_target": "hemagglutinin (HA) of influenza B/Massachusetts/02/12 (Yamagata) (influenza B virus)", "assay": "cell-based or functional assay"}, "[13]": {"biological_target": "hemagglutinin (HA) of influenza A/Mallard/Astrakhan/263/1982 (H14N5) (influenza A virus)", "assay": "cell-based or functional assay"}, "[14]": {"biological_target": "hemagglutinin (HA) of influenza A/Northern Shoveler/MPE2531/08 (H10N9) (influenza A virus)", "assay": "cell-based or functional assay"}, "[15]": {"biological_target": "hemagglutinin (HA) of influenza A/Guiyang/1/57 (H2N2) (influenza A virus)", "assay": "cell-based or functional assay"}, "[16]": {"biological_target": "hemagglutinin (HA) of influenza B/Lee/40 (Old) (influenza B virus) (UniProt P03460)", "assay": "cell-based or functional assay"}, "[17]": {"biological_target": "hemagglutinin (HA) of influenza A/New Caledonia/20/99 (H1N1) (influenza A virus)", "assay": "cell-based or functional assay"}, "[18]": {"biological_target": "hemagglutinin (HA) of influenza A/Solomon Islands/3/2006 (IVR 145) (H1N1) (influenza A virus)", "assay": "cell-based or functional assay"}, "[19]": {"biological_target": "hemagglutinin (HA) of influenza A/Wisconsin/67/05 (H3N2) (influenza A virus)", "assay": "cell-based or functional assay"}, "[20]": {"biological_target": "hemagglutinin (HA) of influenza A/PR8 H5N1 HK97 (H5N1) (influenza A virus)", "assay": "cell-based or functional assay"}, "[21]": {"biological_target": "hemagglutinin (HA) of influenza A/Env/MPJ1258/09 (H8N2) (influenza A virus)", "assay": "cell-based or functional assay"}},
  "note": "pKd: −log10 of the molar value.",
  "data": [
    {"substance": "MD3606 (Fc fusion)", "values": [
      {"measurement": "pKd", "setting": "[1]", "value": 8.96},
      {"measurement": "pKd", "setting": "[2]", "value": 8.92},
      {"measurement": "pKd", "setting": "[3]", "value": 8.66},
      {"measurement": "pKd", "setting": "[4]", "value": 9.22},
      {"measurement": "pKd", "setting": "[5]", "value": 8.42},
      {"measurement": "pKd", "setting": "[6]", "value": 8.85},
      {"measurement": "Average neutralization titers", "setting": "[7]", "value": 1, "unit": "nM"},
      {"measurement": "Average neutralization titers", "setting": "[8]", "value": 3.1, "unit": "nM"},
      {"measurement": "Average neutralization titers", "setting": "[9]", "value": 4.7, "unit": "nM"},
      {"measurement": "Average neutralization titers", "setting": "[10]", "value": 5, "unit": "nM"},
      {"measurement": "Average neutralization titers", "setting": "[11]", "value": "> 1000", "unit": "nM"},
      {"measurement": "Average neutralization titers", "setting": "[12]", "value": 1, "unit": "nM"},
      {"measurement": "Average neutralization titers", "setting": "[13]", "value": 12.9, "unit": "nM"},
      {"measurement": "Average neutralization titers", "setting": "[14]", "value": 20.7, "unit": "nM"},
      {"measurement": "Average neutralization titers", "setting": "[15]", "value": 26.7, "unit": "nM"},
      {"measurement": "Average neutralization titers", "setting": "[16]", "value": 3.3, "unit": "nM"},
      {"measurement": "Average neutralization titers", "setting": "[17]", "value": 2.6, "unit": "nM"},
      {"measurement": "Average neutralization titers", "setting": "[18]", "value": 1.6, "unit": "nM"},
      {"measurement": "ADCC induction (EC50 grade, FcγRIIIa reporter bioassay)", "setting": "[19]", "value": "< 0.1", "unit": "µg/mL"},
      {"measurement": "Average neutralization titers", "setting": "[19]", "value": 6.5, "unit": "nM"},
      {"measurement": "Average neutralization titers", "setting": "[20]", "value": 6.5, "unit": "nM"},
      {"measurement": "Average neutralization titers", "setting": "[21]", "value": 3.9, "unit": "nM"}
    ]}
  ]
}
